Results published in patent publication US7358338B2, “Heme peptide” (Nihon University, priority 2002, dated 2008).

B1: Red alga Porphyra yezonesis cytochrome c6: cytochrome c6 purified from red alga Porphyra yezonesis, SEQ ID NO: 2; comparison protein (protein, listed as Porphyra yezoensis)
chain: ADLDNGEKVFSANCAACHAGGNNAIMPDKTLKKDVLEANSMNTIDAITYQVQNGKNAMPAFGGRLVDEDIEDAANYVLSQSEKGW

Experiments:
[1] = Isoelectric point by isoelectric focusing (Ampholine PAGplate gel, pH 3.5-9.5); format: physicochemical
Protocol: (§1) In the following Examples, reagents manufactured by Wako Purechemical Industries were used unless otherwise noted. Isoelectric point was analyzed by isoelectric focusing using Ampholine PAGplate gel (Pharmacia; for IEF; pH 3.5-9.5). Absorption maximum was determined with Hitachi U-3310 Spectrophotometer (Hitachi). Oxidation-reduction potential was determined with Hitachi U-3310 Spectrophotometer (Hitachi) and ORP electrode (Metrohm).

[2] = Oxidation-reduction potential (spectrophotometer and ORP electrode); format: physicochemical
Protocol: as §1

[3] = Measurement of NO-scavenging ability (nitrite/dithionite/methyl viologen reaction, remaining nitrite by diazotization method); format: biochemical; settings: reaction turnover number from Lineweaver-Burk plot; 2, 4, 6, 8 and 10 mM sodium nitrite; pH 7.0; 37° C.
Protocol: To a 10 ml vial, 0.3 ml of 100 mM phosphate buffer (pH 7.0), 0.4 ml of 10 mM sodium nitrite, 0.5 ml of a solution of each of the above-described peptides, and 0.4 ml of 3 mM methyl viologen (Tokyo Kasei Kogyo) were added. Then, the vial was tightly sealed with a butyl rubber stopper and an aluminum seal. This vial was kept at 37° C. for 5 min while feeding argon gas thereinto. Then, 0.3 ml of 100 mM sodium dithionite (dissolved in 50 mM sodium hydrogencarbonate) was added thereto to start the reaction. A 0.2 ml sample was taken from the reaction solution at regular intervals and air-oxidized in a vortex mixer to thereby terminate the reaction.
The amount of the remaining nitrite was determined by the diazotization method. 0.02 ml of the reaction solution was taken, and 1.98 ml of ultrapure water was added thereto. Then, 1 ml of 1% sulfanilamide, 1 ml of 0.02% N-1-naphthyl ethylenediamine chloride and 1 ml of ultrapure water were added thereto. The resultant solution was left at room temperature for 20 min. Then, absorption of the produced azo dye was measured at 540 nm, followed by calculation of the amount of the remaining nitrite from a working curve prepared from a nitrous acid solution of a known concentration.
The measurement of absorption was performed with Shimadzu UV-1600 UV-Visible Spectrophotometer.
Analysis based on reaction kinetics was performed by determining specific activities against 2, 4, 6, 8 and 10 mM sodium nitrite and then calculating the reaction turnover number kcat(s^−1) using a Lineweaver-Burk plot.

Row | Molecule | Isoelectric point [1] | Oxidation-reduction potential [2] | Rate Constant kcat [3]
1 | mp9: heme peptide, SEQ ID NO: 4, heme bound to Cys 1 and 4; trypsin digest of horse cardiac muscle cytochrome c (CAQCHTVEK; heme bound to Cys1 and Cys4; listed as Equus caballus) | 4.95 | −132 mV | 1.66 s⁻¹
2 | mp15: heme peptide, SEQ ID NO: 3, heme bound to Cys 5 and 8; thermolysin digest of Porphyra yezonesis cytochrome c6 (FSANCAACHAGGNNA; heme bound to Cys5 and Cys8; listed as Porphyra yezoensis) | 4.15 | −82.2 mV | 2.54 s⁻¹
3 | Horse cardiac muscle cytochrome c: horse cardiac muscle cytochrome c (Wako Purechemical Industries), SEQ ID NO: 1; comparison protein [reference compound] |  |  | 0.01521 s⁻¹
4 | mp22: heme peptide, SEQ ID NO: 5, heme bound to Cys 4 and 7; chymotrypsin digest of horse cardiac muscle cytochrome c (VQKCAQCHTVEKGGKHKTGPNL; heme bound to Cys4 and Cys7; listed as Equus caballus) | 6.02 | −66.5 mV | 0.80 s⁻¹
5 | mp65: heme peptide, SEQ ID NO: 6, heme bound to Cys 14 and 17; cyanogen bromide cleavage of horse cardiac muscle cytochrome c | 9.52 | −62.1 mV | 0.12 s⁻¹
6 | B1 |  |  | 0.05 s⁻¹
